One test has as its target T1, human LAG-3-hFc (human, UniProt P18627 23-450).
T1 construct: also called human LAG3-Fc; not shown: human Fc (hFc)
T1 sequence: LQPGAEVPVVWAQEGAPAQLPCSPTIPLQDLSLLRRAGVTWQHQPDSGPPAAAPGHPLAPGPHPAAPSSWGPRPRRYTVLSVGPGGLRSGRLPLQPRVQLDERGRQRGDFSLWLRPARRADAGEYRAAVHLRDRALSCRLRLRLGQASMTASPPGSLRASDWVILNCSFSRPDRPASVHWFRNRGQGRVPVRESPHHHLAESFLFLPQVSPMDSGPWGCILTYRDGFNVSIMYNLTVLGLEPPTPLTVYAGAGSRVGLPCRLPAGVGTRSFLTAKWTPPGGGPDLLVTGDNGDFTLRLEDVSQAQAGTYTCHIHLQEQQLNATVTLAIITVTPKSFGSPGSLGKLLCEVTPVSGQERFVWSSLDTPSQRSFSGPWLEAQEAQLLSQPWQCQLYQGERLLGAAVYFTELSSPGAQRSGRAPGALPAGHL
Nature of the test: flow cytometry ligand competition; LAG-3-hFc on Daudi cells. The procedure: A Nanobody dilution series was prepared in assay buffer: HBSS/2% FBS. Prior to the experiment, Fc receptors on the Daudi cells were blocked with human Fc block (BD Pharmingen, 564220) and 5 μg/mL goat IgG (Jackson ImmunoResearch, 005-000-003) for 30 minutes at 4° C. […] 1×10⁵ cells/well were seeded in V-bottom 96-well plates and resuspended in 100 μL/well of the Nanobody/ligand dilution. After 30 minutes incubation at 4° C., the cells were washed and resuspended in 100 μL/well PE-labeled Goat anti-human IgG (Southern Biotech, 2043-09). Samples were incubated for 15 minutes at 4° C., washed, and resuspended in 100 μL/well of 5 nM TOPRO3 (LifeTechnologies, T3606) solution before analysis on FACS CANTO II (BD).
In general terms: In flow cytometry, cells or beads pass a laser one at a time.

Test [1] has as its target T2, human LAG-3 expressed on cells (human, UniProt P18627 23-525).
T2 construct: the transgene of the cell lines is not tied to it by name; also called hLAG-3; 3A9.hLAG-3
T2 sequence: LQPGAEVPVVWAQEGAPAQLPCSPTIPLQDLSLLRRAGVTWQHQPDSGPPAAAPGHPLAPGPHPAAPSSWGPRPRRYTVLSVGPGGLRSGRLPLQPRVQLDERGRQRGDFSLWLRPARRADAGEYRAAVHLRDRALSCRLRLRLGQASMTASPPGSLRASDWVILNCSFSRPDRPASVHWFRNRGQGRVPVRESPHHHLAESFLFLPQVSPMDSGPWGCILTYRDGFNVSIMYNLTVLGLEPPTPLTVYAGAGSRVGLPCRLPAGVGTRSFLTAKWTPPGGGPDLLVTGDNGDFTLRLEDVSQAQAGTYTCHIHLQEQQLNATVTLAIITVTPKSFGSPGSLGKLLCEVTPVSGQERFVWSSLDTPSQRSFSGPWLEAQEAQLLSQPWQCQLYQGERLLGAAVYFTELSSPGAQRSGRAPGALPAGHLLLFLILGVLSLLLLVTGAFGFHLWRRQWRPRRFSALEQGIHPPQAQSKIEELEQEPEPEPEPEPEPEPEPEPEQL
Put plainly: flow cytometry on 3A9 cells over-expressing human LAG-3. On the procedure: Binding to cell-expressed human LAG-3 was evaluated on human LAG-3 over-expressing 3A9 cells. A Nanobody dilution series was prepared in assay buffer: PBS/10% FBS/0.05% sodium azide. 1×10⁵ cells/well were transferred to a 96-well V-bottom plate and resuspended in 100 μL Nanobody dilution. After 30 minutes incubation at 4° C., the cells were washed with 100 μL/well assay buffer and resuspended in 100 μL/well of 1 μg/ml anti-FLAG (Sigma, F1804). […] Samples were incubated for 30 minutes at 4° C., washed, and resuspended in 100 μL/well of 5 nM TOPRO3 (LifeTechnologies, T3606) solution before analysis on FACS CANTO II (BD).

Test [2] concerns the target T3, human PD-1 expressed on cells (human, UniProt Q15116 25-288).
T3 construct: the transgene of the cell lines is not tied to it by name; also called hPD-1; CHO.hPD-1
Put plainly: flow cytometry ligand competition on CHO cells over-expressing human PD-1. The procedure:
Ligand competition assays were performed on human PD-1 over-expressing CHO cells. A Nanobody dilution series was prepared in assay buffer: PBS/10% FBS/0.05% sodium azide. […] 2×10⁴ cells/well were seeded in V-bottom 96-well plates and resuspended in 200 μL/well of the Nanobody/ligand dilution. After 90 minutes incubation at 4° C., the cells were washed with 100 μL/well assay buffer and resuspended in 100 μL/well PE-labeled Goat anti-human IgG (Southern Biotech, 2043-09). Samples were incubated for 30 minutes at 4° C., washed, and resuspended in 100 μL/well of 5 nM TOPRO3 (LifeTechnologies, T3606) solution before analysis on FACS CANTO II (BD).

T3 sequence (Q15116 25-288 limits assumed): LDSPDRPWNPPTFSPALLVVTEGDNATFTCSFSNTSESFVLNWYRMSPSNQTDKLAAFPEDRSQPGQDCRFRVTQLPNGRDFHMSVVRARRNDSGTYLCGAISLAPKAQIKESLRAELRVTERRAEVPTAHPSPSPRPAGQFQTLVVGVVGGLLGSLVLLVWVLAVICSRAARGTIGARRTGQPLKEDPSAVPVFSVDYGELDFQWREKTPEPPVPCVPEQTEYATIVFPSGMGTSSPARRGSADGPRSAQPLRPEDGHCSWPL

B1: F0237611B09-FLAG3-HIS6 (VHH)
VHH: EVQLVESGGGLVQAGGSLRLSCAASGRTFSDYVMGWFRQARGNEREFVAAISESGGRTHYADAVKGRFTISRDNAKNTLYLQMNSLKPEDTAVYYCATTLLWWTSEYAPIKANDYDYWGQGTLVTVSS
notes: Original monovalent anti-human LAG-3 Nanobody; also called F0237611B09-FLAG-His6; F02376611B09
Turning to B1, the binding result (with human LAG-3-hFc; in test [1]) was “binds” each time.

B2: F023700275 (1PD102C12(A14P, A74S, K83R)-FLAG3-HIS6) (VHH)
VHH: EVQLVESGGGLVQPGGSLRLSCAASGSIASIHAMGWFRQAPGKEREFVAVITWSGGITYYADSVKGRFTISRDNSKNTVYLQMNSLRPEDTAIYYCAGDKHQSSWYDYWGQGTLVTVSS
notes: Monovalent anti-human PD-1 Nanobody, parent of F023700706
In the case of B2, in test [2], the binding result was “binds”.

The record behind these values is patent US20190330339A1 (published 2019).
